Our source for the stoichiometry N values is paper PMC11822720.

This test concerns the target Centrolobium microchaete seed lectin (Centrolobium microchaete). Kind of test: crystal structure; CML co-crystallised with 5 mM MDM; 200 mM ammonium sulfate, 100 mM HEPES pH 7.5, 25% PEG 3350; space group C121, one dimer per asymmetric unit; dimer also checked by PISA.

In the case of “Centrolobium microchaete seed lectin (natural protein)”, the stoichiometry N – broadly, a count of units in the complex or per binding partner – stood at 2.
